In US12533409B2, “Compositions and methods for targeting mutant RAS” (The Trustees of the University of Pennsylvania, priority 2019, dated 2026):

Assays:
HLA-B*07:02 = HLA-B*07:02 (Homo sapiens, UniProt P01889); test: HLA class I immunoprecipitation peptide elution and tandem Mass Spec (MS/MS), monoallelic K562 RAS TMG cell lines; type: cell-based; set-up: expressed in transfected cells; host or cells: K562, lentiviral HLA construct plus RAS tandem minigene construct; conditions: B*07:02-restricted; antigen processing/presentation
Text: (§1) Additional antigen processing and presentation studies were done using mass spectrometry. First, monoallelic K562 cell lines were created to express specific HLA types (FIG. 7A). Further, lentiviral constructs expressing various wt RAS and mRAS peptides were generated (FIG. 7E). Monoallelic cell lines that express specific HLA types and the various RAS and mRAS peptides were then created. The expression of HLA class I and HLA-specific expression of RAS TMG cells lines were verified by FACS (FIG. 7C and FIG. 7D).
(§2) Further, novel epitopes are identified for HLA-B*07:02.

HLA-A*11:01 [1] = molecular target: T1, HLA-A*11:01 (Homo sapiens, UniProt P04439, A114D/D185E/E176A/F33Y/L180Q/S129P/T187R); test: Competitive peptide binding fluorescence polarization assay; conditions: peptide-MHC binding; strong binding affinity indicated by log[IC50]<3.7 (FIG. 6A)
Procedure: (§3) Experiments were also conducted to examine peptide-MHC binding.

HLA-A*11:01 [2] = molecular target: T1, HLA-A*11:01; test: HLA class I immunoprecipitation peptide elution and tandem Mass Spec (MS/MS), monoallelic K562 RAS TMG cell lines; type: cell-based; set-up: expressed in transfected cells; host or cells: K562, lentiviral HLA construct plus RAS tandem minigene construct; conditions: A*11:01-restricted; antigen processing/presentation
Text: as §1, §2

HLA-A*03:01 [3] = molecular target: T2, HLA-A*03:01 (Homo sapiens, UniProt P04439); test: as above; type: cell-based; set-up: expressed in transfected cells; host or cells: K562, lentiviral HLA construct plus RAS tandem minigene construct; conditions: A*03:01-restricted; antigen processing/presentation
Text: as §1, §2

HLA-A*03:01 [4] = molecular target: T2, HLA-A*03:01; test: Competitive peptide binding fluorescence polarization assay; conditions: peptide-MHC binding; strong binding affinity indicated by log[IC50]<3.7 (FIG. 6A)
Procedure: as §3

RAS G12R (GA_R) = RAS G12R (GA_R) (Homo sapiens, UniProt P01116+P01889, G12R); test: Jurkat Reporter assay of TCR specificity and cross-reactivity; type: cell-based; conditions: Jurkat Reporter cells
Procedure: (§4) Further experiments were done to characterize TCR847 expression and function. TCR847 expression was validated by peptide-MHC multimer staining of lentiviral-transduced Jurkat Reporter cells, as shown in FIG. 29A. FIG. 29B depicts the results of experiments assessing TCR specificity and cross-reactivity to alternative mutant RAS epitopes by Jurkat Reporter assay.
as §4, with “conducted” for “done”, “TCR864” for “TCR847”, “30A.” for “29A.”, “30B” for “29B”, “TCR864 avidity by Jurkat Reporter cells. Experiments were conducted to examine TCR864” for “TCR”, “assay. […] The expression of TCR864 on primary CD8+ T cells is depicted in FIG. 30D.” for “assay.”

wildtype RAS epitope = test: as above; type: cell-based; conditions: Jurkat Reporter cells; HLA-B*07:02-restricted TCR
Procedure: The validation of TCR831 expression by peptide-MHC multimer staining of lentiviral-transduced Jurkat Reporter cells is shown in FIG. 25A. Experiments were conducted to examine TCR831 avidity by Jurkat Reporter cells (FIG. 25B). Experiments were also conducted to assess TCR831 specificity and cross-reactivity to alternative mutant RAS epitopes by Jurkat Reporter assay. […] depicts TCR activation of Jurkat Reporter cells following coculture with A*11:01 positive RAS G12V tumor cell lines. FIG. 25E depicts the expression of TCR831 on primary CD8+ T cells. […] Cell line coloring corresponds to that in FIG. 25D.
Experiments were also conducted to further characterize the expression and function of TCR833. The validation of TCR833 expression by peptide-MHC multimer staining of lentiviral-transduced Jurkat Reporter cells is shown in FIG. 26A. FIG. 26B depicts the results of experiments assessing TCR833 avidity by Jurkat Reporter cells. Experiments were also conducted to assess TCR833 specificity and cross-reactivity to alternative mutant RAS epitopes by Jurkat Reporter assay. […] FIG. 26D depicts TCR833 activation of Jurkat Reporter cells following coculture with A*11:01 positive RAS G12V tumor cell lines.
as §4, with “conducted” for “done”, “TCR897” for “TCR847”, “27A.” for “29A.”, “27B” for “29B”, “TCR897 avidity by Jurkat Reporter cells. Experiments were conducted to assess TCR897” for “TCR”
(§5) Further experiments were conducted to characterize TCR896 expression and function. TCR896 expression was validated by peptide-MHC multimer staining of lentiviral-transduced Jurkat Reporter cells, as shown in FIG. 28A. FIG. 28B depicts the results of experiments assessing TCR896 avidity by Jurkat Reporter cells. Experiments were conducted assessing TCR specificity and cross-reactivity to alternative mutant RAS epitopes by Jurkat Reporter assay. […] FIG. 28D depicts TCR activation of Jurkat Reporter cells following coculture with A*03:01 positive RAS G12V tumor cell lines.
as §4
(§6) Further experiments were conducted to characterize TCR864 expression and function. TCR864 expression was validated by peptide-MHC multimer staining of lentiviral-transduced Jurkat Reporter cells, as shown in FIG. 30A. FIG. 30B depicts the results of experiments assessing TCR864 avidity by Jurkat Reporter cells. Experiments were conducted to examine TCR864 specificity and cross-reactivity to alternative mutant RAS epitopes by Jurkat Reporter assay. […] The expression of TCR864 on primary CD8+ T cells is depicted in FIG. 30D.

[5] = system: alternatively mutated RAS epitopes; test: as above; type: cell-based; conditions: Jurkat Reporter cells; HLA-B*07:02-restricted TCR
Procedure: as §5, §4, §6

Row | Molecule | binding affinity of mRAS neoepitope for HLA-A*11:01 (HLA-A*11:01 [1]) | detection of mRAS epitope by HLA class I immunoprecipitation peptide elution and MS/MS (HLA-A*11:01 [2]) | detection of mRAS epitope by HLA class I immunoprecipitation peptide elution and MS/MS (HLA-A*03:01 [3]) | other results
1 | GADGVGKSAL (GA_D) [mRAS peptide, G12D, HLA-B*07:02] | – | – | – | detection of mRAS epitope by HLA class I immunoprecipitation peptide elution and MS/MS (HLA-B*07:02): identified new epitopes
2 | VVGACGVGK [VV_C] | high binding affinity | – | – | –
3 | VVGADGVGK [VV_D] | high binding affinity | detection | – | –
4 | VVGARGVGK (VV_R) [mRAS peptide, G12R, HLA-A*03:01 and HLA-A*11:01] | high binding affinity | detection | detection | –
5 | VVVGADGVGK [VVV_D] | high binding affinity | detection | detection | –
6 | VVVGARGVGK (VVV_R) [mRAS peptide, G12R, HLA-A*03:01 and HLA-A*11:01] | high binding affinity | – | – | binding affinity of mRAS neoepitope for HLA-A*03:01 (HLA-A*03:01 [4]): high binding affinity
7 | VVVGAVGVGK [VVV_V] | high binding affinity | detection | detection | binding affinity of mRAS neoepitope for HLA-A*03:01 (HLA-A*03:01 [4]): high binding affinity
8 | TCR847: TCR construct, TRAV17 and TRBV10-3; fusion protein SEQ ID NO: 80; HLA-B*07:02 (protein, TCR847 FUSION, TCR construct, TRAV17 and TRBV10-3; HLA-B*07:02) METLLGVSLVILWLQLARVNSQQGEEDPQALSIQEGENATMNCSYKTSINNLQWYRQNSGRGLVHLILIRSNEREKHSGRLRVTLDTSKKSSSLLITASRAADTASYFCATFPNFGNEKLTFGTGTRLTIIPNIQNPDPAVYQLRDSKSSDKSVCLFTDFDSQTNVSQSKDSDVYITDKTVLDMRSMDFKSNSAVAWSNKSDFACANAFNNSIIPEDTFFPSPESSCDVKLVEKSFETDTNLNFQNLSVIGFRILLLKVAGFNLLMTLRLWSSGSGEGRGSLLTCGDVEENPGPMGTRLFFYVALCLLWTGHMDAGITQSPRHKVTETGTPVTLRCHQTENHRYMYWYRQDPGHGLRLIHYSYGVKDTDKGEVSDGYSVSRSKTEDFLLTLESATSSQTSVYFCAISESERYYEQYFGPGTRLTVTEDLKNVFPPEVAVFEPSEAEISHTQKATLVCLATGFYPDHVELSWWVNGKEVHSGVSTDPQPLKEQPALNDSRYCLSSRLRVSATFWQNPRNHFRCQVQFYGLSENDEWTQDRAKPVTQIVSAEAWGRADCGFTSESYQQGVLSATILYEILLGKATLYAVLVSALVLMAMVKRKDSRG | – | – | – | specificity for RAS G12R (GA_R) (RAS G12R (GA_R)): exhibits specificity; reactivity to wildtype (wildtype RAS epitope): not wildtype; reactivity to alternatively mutated RAS epitopes [5]: not wildtype or alternatively mutated
